Patent US8729232

Tested on: T1, biotinylated 13-mer peptide LCTPSKGSLFTGR (native Mtb motif with arginine to lysine substitution at position 6)
T1 sequence: LCTPSKGSLFTGR

Mycobacterium tuberculosis formylglycine generating enzyme (Mtb FGE, Rv0712), recombinant
FGly conversion detected by MALDI-TOF: A peak indicating the FGly-modified species appeared
